Laboratory results reported in patent US20230295310A1 (ABCELLERA BIOLOGICS, published 2023).

Target: EGFR on HeLa cells (UniProt P00533 25-1210, limits assumed)
Assay: cell-based or functional assay

X… HeLa EC50 | Binder | Max killing %
0.0331 nM | GOMP001_bsAb_038 (bispecific antibody, human IgG1, kappa, L234A L235A) heavy 1: EVQLVESGGVLVKTGGSLRLSCVASGFSFKKAWMNWVRKAPGKGLEWVGRIKRNSDGGAADYAAEVKDRFTLSRDDSKNTLYLQMNSLKTEDTAVYYCTTLDSSSWYVGYYYMDVWGKGTTVTVSSASTKGPSVFPLAPSSKSTSGGTAALGCLVADYFPEPVTVSWNSGALTSGVHTFPAVLQSSGLYSLSSVVTVPSSSLGTQTYICNVNHKPSNTKVDEKVEPKSCDKTHTCPPCPAPEAAGGPSVFLFPPKPKDTLMISRTPEVTCVVVDVSHEDPEVKFNWYVDGVEVHNAKTKPREEQYNSTYRVVSVLTVLHQDWLNGKEYKCKVSNKALPAPIEKTISKAKGQPREPQVYTLPPSREEMTDNQVSLTCLVKGFYPSDIAVEWESNGQPENNYKTTPPVLMSDGSFFLASKLTVDKSRWQQGNVFSCSVMHEALHNHYTQKSLSLSPG light 1: RIHMTQSPSSVSASLGDRVTFTCRASQNINNWLAWYQDKPGKAPKLLIYTASSLQSGVPSRFSGSGSGTDFTLTISSLQPDDFATYYCQQAHSLPITFGQGTRLGIKRTVAAPSVFIFPPSDKQLKSGTARVVCLLNNFYPREAKVQWKVDNALQSGNSQESVTEQDSKDSTYSLSSTLTLSKADYEKHKVYACEVTHQGLSSPVTKSFNRGEC heavy 2: QVQLVQSGAEVKKPGASVKVSCKASGYTFTSHWMHWVRYAPGQGLEWIGEFNPSNGRTNYNEKFKSKATMTVDTSTNTAYMELSSLRSEDTAVYYCASRDYDYDGRYFDYWGRGTLVTVSSASTKGPSVFPLAPSSKSTSGGTAALGCLVKDYFPEPVTVSWNSGALTSGVHTFPAVLQSSGLYSLSSVVTVPSSSLGTQTYICNVNHKPSNTKVDKKVEPKSCDKTHTCPPCPAPEAAGGPSVFLFPPKPKDTLMISRTPEVTCVVVDVSHEDPEVKFNWYVDGVEVHNAKTKPREEQYNSTYRVVSVLTVLHQDWLNGKEYKCKVSNKALPAPIEKTISKAKGQPRRPRVYTLPPSREEMTKNQVSLVCLVKGFYPSDIAVEWESNGQPENNYKTTPPVLDSDGSFFLYSVLTVDKSRWQQGNVFSCSVMHEALHNHYTQKSLSLSPG light 2: DIQMTQSPSSLSASVGDRVTITCSASSSVTYMYWYQRKPGDAPKLLIYDTSNLASGVPSRFSGSGSGTDYTFTISSLQPEDIATYYCQQWSSHIFTFGQGTKVEIKRTVAAPSVFIFPPSDEQLKSGTASVVCLLNNFYPREAKVQWKVDNALQSGNSQESVTEQDSKDSTYSLSSTLTLSKADYEKHKVYACEVTHQGLSSPVTKSFNRGEC | 93.6%
0.0391 nM | GOMP001_bsAb_040 (bispecific antibody, human IgG1, kappa, L234A L235A) heavy 1: EVQLVESGGGLVKTGGSHRLSCVASGFSFKKAWMNWVRKAPGKGLEWVGRIKRNSDGGTTDYAAEVKGRFILSRDDSKNTLYLQMNSLKTEDTAVYYCTTLDSSSWYVGYYYMDVWGKGTTVTVSSASTKGPSVFPLAPSSKSTSGGTAALGCLVADYFPEPVTVSWNSGALTSGVHTFPAVLQSSGLYSLSSVVTVPSSSLGTQTYICNVNHKPSNTKVDEKVEPKSCDKTHTCPPCPAPEAAGGPSVFLFPPKPKDTLMISRTPEVTCVVVDVSHEDPEVKFNWYVDGVEVHNAKTKPREEQYNSTYRVVSVLTVLHQDWLNGKEYKCKVSNKALPAPIEKTISKAKGQPREPQVYTLPPSREEMTDNQVSLTCLVKGFYPSDIAVEWESNGQPENNYKTTPPVLMSDGSFFLASKLTVDKSRWQQGNVFSCSVMHEALHNHYTQKSLSLSPG light 1: RIQMTQSPSSVSASVGDRVTITCRASQDINNWLAWYQDKPGKAPKILIYTASNLQSGVPSRFSGSGSGTDFTLTISSLQPEDFATYFCQQAHSLPITFGQGTRLEIKRTVAAPSVFIFPPSDKQLKSGTARVVCLLNNFYPREAKVQWKVDNALQSGNSQESVTEQDSKDSTYSLSSTLTLSKADYEKHKVYACEVTHQGLSSPVTKSFNRGEC heavy 2: QVQLVQSGAEVKKPGASVKVSCKASGYTFTSHWMHWVRYAPGQGLEWIGEFNPSNGRTNYNEKFKSKATMTVDTSTNTAYMELSSLRSEDTAVYYCASRDYDYDGRYFDYWGRGTLVTVSSASTKGPSVFPLAPSSKSTSGGTAALGCLVKDYFPEPVTVSWNSGALTSGVHTFPAVLQSSGLYSLSSVVTVPSSSLGTQTYICNVNHKPSNTKVDKKVEPKSCDKTHTCPPCPAPEAAGGPSVFLFPPKPKDTLMISRTPEVTCVVVDVSHEDPEVKFNWYVDGVEVHNAKTKPREEQYNSTYRVVSVLTVLHQDWLNGKEYKCKVSNKALPAPIEKTISKAKGQPRRPRVYTLPPSREEMTKNQVSLVCLVKGFYPSDIAVEWESNGQPENNYKTTPPVLDSDGSFFLYSVLTVDKSRWQQGNVFSCSVMHEALHNHYTQKSLSLSPG light 2: DIQMTQSPSSLSASVGDRVTITCSASSSVTYMYWYQRKPGDAPKLLIYDTSNLASGVPSRFSGSGSGTDYTFTISSLQPEDIATYYCQQWSSHIFTFGQGTKVEIKRTVAAPSVFIFPPSDEQLKSGTASVVCLLNNFYPREAKVQWKVDNALQSGNSQESVTEQDSKDSTYSLSSTLTLSKADYEKHKVYACEVTHQGLSSPVTKSFNRGEC | 89.5%
0.374 nM | GOMP001_bsAb_039 (bispecific antibody, human IgG1, kappa, L234A L235A) heavy 1: QVQLVQSGAEVKKPGASVKVSCKASGYTFTSHWMHWVRKAPGQGLEWIGEFNPSNGRTNYNEEFKSKATMTVDTSTNTAYMELSSLRSEDTAVYYCASRDYDYDGRYFDYWGQGTLVTVSSASTKGPSVFPLAPSSKSTSGGTAALGCLVADYFPEPVTVSWNSGALTSGVHTFPAVLQSSGLYSLSSVVTVPSSSLGTQTYICNVNHKPSNTKVDEKVEPKSCDKTHTCPPCPAPEAAGGPSVFLFPPKPKDTLMISRTPEVTCVVVDVSHEDPEVKFNWYVDGVEVHNAKTKPREEQYNSTYRVVSVLTVLHQDWLNGKEYKCKVSNKALPAPIEKTISKAKGQPREPQVYTLPPSREEMTDNQVSLTCLVKGFYPSDIAVEWESNGQPENNYKTTPPVLMSDGSFFLASKLTVDKSRWQQGNVFSCSVMHEALHNHYTQKSLSLSPG light 1: RIQMTQSPSSLSASVGDRVTITCSASSSVTYMYWYQDKPGKAPKLLIYDTSNLASGVPSRFSGSGSGTDYTFTISSLQPEDIATYYCQQWSSHIFTFGQGTKVEIKRTVAAPSVFIFPPSDKQLKSGTARVVCLLNNFYPREAKVQWKVDNALQSGNSQESVTEQDSKDSTYSLSSTLTLSKADYEKHKVYACEVTHQGLSSPVTKSFNRGEC heavy 2: EVQLVESGGGLVKTGGSHRLSCVASGFSFKKAWMNWVRYAPGKGLEWVGRIKRNSDGGTTDYAARVKGRFILSRDDSKNTLYLQMNSLKTEDTAVYYCTTLDSSSWYVGYYYMDVWGRGTTVTVSSASTKGPSVFPLAPSSKSTSGGTAALGCLVKDYFPEPVTVSWNSGALTSGVHTFPAVLQSSGLYSLSSVVTVPSSSLGTQTYICNVNHKPSNTKVDKKVEPKSCDKTHTCPPCPAPEAAGGPSVFLFPPKPKDTLMISRTPEVTCVVVDVSHEDPEVKFNWYVDGVEVHNAKTKPREEQYNSTYRVVSVLTVLHQDWLNGKEYKCKVSNKALPAPIEKTISKAKGQPRRPRVYTLPPSREEMTKNQVSLVCLVKGFYPSDIAVEWESNGQPENNYKTTPPVLDSDGSFFLYSVLTVDKSRWQQGNVFSCSVMHEALHNHYTQKSLSLSPG light 2: DIQMTQSPSSVSASVGDRVTITCRASQDINNWLAWYQRKPGDAPKILIYTASNLQSGVPSRFSGSGSGTDFTLTISSLQPEDFATYFCQQAHSLPITFGQGTRLEIKRTVAAPSVFIFPPSDEQLKSGTASVVCLLNNFYPREAKVQWKVDNALQSGNSQESVTEQDSKDSTYSLSSTLTLSKADYEKHKVYACEVTHQGLSSPVTKSFNRGEC | 81.1%
